Measurements: paper PMC9263151, “Structural and biochemical analyses of the flagellar expression regulator DegU from Listeria monocytogenes”

Experiments:
[1] = target: DNA-binding domain of Listeria monocytogenes DegU (lmDegUDBD) (Listeria monocytogenes ATCC 15313) (UniProt Q6DL91); assay: cross-linking; 5 μg protein in 20 mM Hepes pH 7.4, 300 mM sodium chloride, 5 mM β-mercaptoethanol with EDC and sulfo-NHS, 5 min at room temperature; SDS-PAGE, Coomassie staining
[2] = target: DNA-binding domain of Listeria monocytogenes DegU (lmDegUDBD) (Listeria monocytogenes ATCC 15313) (UniProt Q6DL91); assay: crystal structure; lmDegUDBD alone, two chains (A and B) in the asymmetric unit; crystals from 22% PEG 3350, 0.1 M Tris pH 8.0, 18 °C; 2.39 Å
[3] = target: lmDegUFL D55E (Listeria monocytogenes ATCC 15313, UniProt Q6DL91 1-228, D55E); assay: fluorescence polarization; affinity not significantly changed vs lmDegUFL; conditions: protein: recombinant; tags: C-terminal His6; chain copies: 2; blunt
[4] = target: lmDegUFL (Listeria monocytogenes ATCC 15313, UniProt Q6DL91 1-228); assay: fluorescence polarization; unphosphorylated; conditions: protein: recombinant; tags: C-terminal His6; chain copies: 2; blunt
[5] = target: lmDegUFL D55N (Listeria monocytogenes ATCC 15313, UniProt Q6DL91 1-228, D55N); assay: fluorescence polarization; comparable to lmDegUFL; conditions: protein: recombinant; tags: C-terminal His6; chain copies: 2; blunt
[6] = target: T1, lmDegUDBD (Listeria monocytogenes ATCC 15313, UniProt Q6DL91 159-228); assay: fluorescence polarization; conditions: protein: recombinant; tags: N-terminal His6 removed by thrombin; chain copies: 2; blunt
T1 sequence: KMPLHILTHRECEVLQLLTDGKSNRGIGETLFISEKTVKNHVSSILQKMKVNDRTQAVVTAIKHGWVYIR

[7] = target: lmDegURD (Listeria monocytogenes ATCC 15313, UniProt Q6DL91 1-143); assay: EMSA; no shift; conditions: protein: recombinant; tags: N-terminal His6 removed by TEV; chain copies: 2; blunt

For “DNA-binding domain of Listeria monocytogenes DegU (lmDegUDBD) (from UniProt Q6DL91 159-228) (domain or fragment)”, the stoichiometry N [1] was 2 and the stoichiometry N [2] was 2.

B1: fliN-gmaR operator 36-bp dsDNA, fluorescein (dsDNA)
DNA 1: CGAGTAGGTCAAAAGGATTGGGTATGAAGAACCTTT
DNA 2: AAAGGTTCTTCATACCCAATCCTTTTGACCTACTCG
B1 was tested, and the binding result [3] was “binds”, the Kd [4] was 0.173 ± 0.026 µM and the binding result [5] was “binds”. The Kd [6] was 6.7 ± 2.3 µM.

B2: fliN-gmaR operator 36-bp dsDNA, unlabeled (dsDNA)
DNA 1: B1 DNA 1
DNA 2: B1 DNA 2
B2: no binding [7].
